Source: paper PMC10320429

Target: HLA-A*11:01 on TAP2-KO HLA class I monoallelic TISI cells (human | human (endogenous in TISI))
Assay: flow cytometry on cells

Binder | ΔHLA (% control)
VVGASGVGK [KRAS_G12S epitope peptide …] | 219%
VVVGAGDVGK | 195%
VVGACGVGK [KRAS_G12C epitope peptide …] | 234%
VVGAAGVGK [KRAS_G12A epitope peptide …] | 218%

The remaining lines, values ahead:

ΔHLA (% control) | Binder
107% | SSCMGSMNR [TP53_G245S epitope peptide …]
124% | ISTRDPLSK
127% | KAISTRDPLSK
181% | VVGAGDVGK
